Results on 167 variants are retold here after the RNAGym collection of RNA variant scans (doi:10.7554/elife.80360).

To fix the notation:
B1: CPEB3 Ribozyme (parent)
chain: GGGGGCCACAGCAGAAGCGUUCACGUCGCGGCCCCUGUCAGAUUCUGGUGAAUCUGCGAAUUCUGCUGU

The data set covers variants of B1. Nature of the data set: self-cleavage, relative activity (ratio to wild type); higher = more cleavage; co-transcriptional.
Consider A16G G19A, for which the self-cleavage stood at 0.163.

For A16G G19U, the self-cleavage came to 0.184.

Consider A16G U43G, for which the self-cleavage is 0.708.

Turning to G17C A52C, the self-cleavage is 0.126.

Take A16U G19C: the self-cleavage was determined as 0.112.

As for A16U U36G, the self-cleavage stood at 0.111.

Regarding G17A U38A, the self-cleavage is 0.241.

Consider A16U U46G, for which the self-cleavage is 0.78.

For A16U U46A, the self-cleavage is 0.866.

For the variant C18A A51C, the self-cleavage is 0.164.

Take G17U U21C: the self-cleavage was determined as 0.14.

For A16G U62G, the self-cleavage turned out to be 0.593.

On to G17A A59U, for which the self-cleavage came out at 0.246.

For the variant G17A A59C, the self-cleavage came out at 0.308.

Consider G17U G68C, for which the self-cleavage turned out to be 0.818.

In the case of G17U G68U, the self-cleavage turned out to be 0.768.

In the case of G17C C54U, the self-cleavage was 0.145.

For the variant A16U G37C, the self-cleavage was found to be 0.0966.

G17A G28C: the self-cleavage was 0.0891.

Turning to G17C U69C, the self-cleavage worked out at 0.284.

As to G17C G41A, the self-cleavage was 0.136.

With G17C G65C, the self-cleavage worked out at 0.195.

With G17A C29G, the self-cleavage is 0.749.

As for A16U G17C, the self-cleavage stood at 0.193.

In the case of G17C G48A, the self-cleavage was 0.137.

With A16U U62A, the self-cleavage turned out to be 0.74.

As to A16U U67C, the self-cleavage came to 0.856.

As to A16U U20G, the self-cleavage turned out to be 0.108.

In the case of G17C U44A, the self-cleavage came out at 0.24.

On to G17C U44G, for which the self-cleavage is 0.137.

As to G17C U44C, the self-cleavage was 0.141.

Consider C18G C27U, for which the self-cleavage is 0.0906.

In the case of A16U C27G, the self-cleavage came out at 0.115.

As to A16U C27A, the self-cleavage worked out at 0.205.

On to A16U C27U, for which the self-cleavage amounted to 0.125.

For C18A C29U, the self-cleavage is 0.0504.

For the variant C18A C29A, the self-cleavage worked out at 0.127.

On to G17C U62C, for which the self-cleavage turned out to be 0.194.

Regarding A16G U26C, the self-cleavage came to 0.555.

In the case of C18G G47C, the self-cleavage worked out at 0.0572.

Regarding C18G G47U, the self-cleavage is 0.177.

Take G17A U55A: the self-cleavage was 0.195.

Take G17A U55C: the self-cleavage was found to be 0.141.

C18A A23U: the self-cleavage worked out at 0.179.

For C18A A23C, the self-cleavage was determined as 0.128.

On to A16U G47U, for which the self-cleavage is 0.879.

With A16U G47C, the self-cleavage worked out at 0.906.

With A16U U26G, the self-cleavage was 0.461.

On to G17A U43C, for which the self-cleavage is 0.336.

With G17A U43G, the self-cleavage amounted to 0.177.

As for G17A U43A, the self-cleavage came out at 0.253.

In the case of G17A G37U, the self-cleavage turned out to be 0.146.

As to C18G G50C, the self-cleavage was 0.201.

In the case of G17U A40G, the self-cleavage worked out at 0.352.

On to G17U A40C, for which the self-cleavage stood at 0.147.

For A16U U43C, the self-cleavage came out at 0.86.

In the case of C18G C63G, the self-cleavage was 0.104.

Turning to C18G C29G, the self-cleavage came out at 0.187.

Take G17C C33G: the self-cleavage was 0.171.

For the variant G17C G68U, the self-cleavage worked out at 0.21.

For the variant C18A C35A, the self-cleavage came out at 0.155.

Regarding C18G C66U, the self-cleavage was found to be 0.215.

For C18G C66G, the self-cleavage is 0.0954.

Regarding G17A C34G, the self-cleavage was found to be 0.197.

For the variant G17A G48U, the self-cleavage worked out at 0.614.

Take G17A G48A: the self-cleavage was found to be 0.611.

Consider C18G C22U, for which the self-cleavage came out at 0.192.

For the variant G17C C27U, the self-cleavage was 0.16.

With G17C C66G, the self-cleavage was determined as 0.136.

As to G17C C66A, the self-cleavage is 0.145.

For the variant C18A C27G, the self-cleavage stood at 0.112.

For the variant C18A C27U, the self-cleavage was found to be 0.12.

With G17C A42G, the self-cleavage was 0.128.

As for A16U C45G, the self-cleavage is 0.839.

In the case of A16U C45U, the self-cleavage turned out to be 0.893.

As for C18G A42C, the self-cleavage is 0.124.

As to A16U U53C, the self-cleavage is 0.66.

In the case of G17U U53C, the self-cleavage was 0.188.

For the variant G17C U55A, the self-cleavage is 0.177.

Regarding A16U C63A, the self-cleavage amounted to 0.501.

Turning to A16U C63U, the self-cleavage was 0.732.

G17U U44G: the self-cleavage turned out to be 0.31.

As for C18G A52G, the self-cleavage came out at 0.244.

As for C18G A52C, the self-cleavage amounted to 0.181.

For C18G C57G, the self-cleavage came out at 0.17.

Turning to G17U U67G, the self-cleavage worked out at 0.627.

As for G17U U67A, the self-cleavage is 0.513.

Regarding C18G A51G, the self-cleavage came out at 0.184.

Consider C18G A51U, for which the self-cleavage was 0.207.

Regarding G17U U38C, the self-cleavage stood at 0.413.

G17C C35U: the self-cleavage came to 0.15.

Consider G17C C35G, for which the self-cleavage is 0.153.

As to A16G U67A, the self-cleavage amounted to 0.907.

As for A16U U69G, the self-cleavage amounted to 0.972.

On to A16G U46A, for which the self-cleavage is 0.948.

For the variant A16G U53G, the self-cleavage was determined as 0.784.

As to A16G U53A, the self-cleavage was 0.752.

In the case of A16G G58A, the self-cleavage is 0.932.

A16G G58U: the self-cleavage is 0.962.

In the case of A16G G28U, the self-cleavage was 0.188.

Turning to A16G G28A, the self-cleavage is 0.215.

Turning to G17A A42G, the self-cleavage turned out to be 0.286.

With A16G U44C, the self-cleavage was 0.734.

Take A16G U44G: the self-cleavage amounted to 0.84.

Regarding A16U C18G, the self-cleavage was 0.167.

A16U C18U: the self-cleavage stood at 0.301.

For the variant G17C U53A, the self-cleavage worked out at 0.144.

Consider G17C U53C, for which the self-cleavage was 0.134.

For C18A C63A, the self-cleavage came out at 0.119.

For G17A A40G, the self-cleavage was 0.344.

Turning to A16U U38G, the self-cleavage came to 0.272.

Turning to C18G C54G, the self-cleavage was determined as 0.0613.

As for C18G C54U, the self-cleavage is 0.15.

Regarding G17A U26A, the self-cleavage came out at 0.349.

As for G17C C39U, the self-cleavage stood at 0.117.

G17C U36C: the self-cleavage was determined as 0.118.

As for G17U U36C, the self-cleavage was determined as 0.252.

Consider A16G G41A, for which the self-cleavage is 0.404.

C18A A59G: the self-cleavage was 0.145.

With C18A A59U, the self-cleavage came to 0.123.

Turning to C18A C66G, the self-cleavage amounted to 0.147.

Regarding C18A C66U, the self-cleavage amounted to 0.153.

Turning to C18A C66A, the self-cleavage was 0.13.

In the case of G17C A51C, the self-cleavage came out at 0.165.

For C18A U69C, the self-cleavage amounted to 0.517.

For the variant G17C C45A, the self-cleavage came out at 0.119.

On to G17U C27U, for which the self-cleavage was determined as 0.105.

Turning to C18A U61C, the self-cleavage was determined as 0.158.

With A16U G58U, the self-cleavage was found to be 0.814.

For the variant A16G G37A, the self-cleavage was 0.13.

For the variant A16U G31U, the self-cleavage is 0.295.

Consider A16U G31C, for which the self-cleavage amounted to 0.147.

On to C18A C33A, for which the self-cleavage was determined as 0.153.

A16G U21A: the self-cleavage was 0.92.

Consider A16G U55A, for which the self-cleavage turned out to be 0.659.

Consider A16G U55G, for which the self-cleavage was determined as 0.67.

Regarding G17C G47U, the self-cleavage worked out at 0.149.

With G17C G47A, the self-cleavage came out at 0.185.

On to C18A A42G, for which the self-cleavage stood at 0.208.

Take C18G G25A: the self-cleavage amounted to 0.174.

Take G17U U69G: the self-cleavage was determined as 0.768.

As for G17U U69A, the self-cleavage was determined as 0.675.

For the variant C18A G58C, the self-cleavage amounted to 0.193.

Turning to G17A C22U, the self-cleavage is 0.148.

Turning to C18G A40G, the self-cleavage came to 0.122.

As to C18G A23G, the self-cleavage stood at 0.0901.

Consider C18G A23U, for which the self-cleavage stood at 0.22.

Consider C18G A59C, for which the self-cleavage worked out at 0.149.

As for G17A A52C, the self-cleavage was 0.431.

G17U C39U: the self-cleavage is 0.278.

With C18A U49A, the self-cleavage was 0.16.

Turning to C18A U49C, the self-cleavage turned out to be 0.195.

Turning to G17U U55C, the self-cleavage is 0.227.

For G17U C34A, the self-cleavage turned out to be 0.195.

As for G17U C54U, the self-cleavage was determined as 0.461.

As for G17U C54A, the self-cleavage was 0.188.

In the case of A16U A52U, the self-cleavage is 0.801.

As for A16U A52C, the self-cleavage stood at 0.856.

As for G17U U61G, the self-cleavage stood at 0.344.

Consider G17U U61C, for which the self-cleavage turned out to be 0.186.

Consider A16U G30U, for which the self-cleavage was 0.261.

Take G17C G31A: the self-cleavage was 0.111.

On to C18A U62G, for which the self-cleavage was 0.152.

Regarding C18A U62A, the self-cleavage was found to be 0.133.

For the variant C18A U62C, the self-cleavage worked out at 0.141.

For A16U G68A, the self-cleavage was found to be 0.953.

For G17U G25U, the self-cleavage was determined as 0.121.
